How the values were obtained:
[1] = test system: white mice (male mice of type NMRI); test: Blood sugar level in mice after intravenous injection (anthrone method); type: in vivo; settings: i.v.; for blood sugar level reduced to % of the normal value: in 30 minutes
Experimental: Test animals were white mice (male mice of type NMRI) having a body weight of 25±2 g. The solutions below were administrated intravenously in the tails of the mice. There were three groups of mice, in which there were three mice each. The solutions contained:
Group A: 0.5 ml 0.9% (w/v) NaCl
Group B: 0.5 ml 0.9% (w/v) NaCl and 5 ug native insulin
Group C: 0.5 ml 0.9% (w/v) NaCl 50 ug insulin-2-pyridyl disulfide derivative synthesized as above.
Blood samples were collected in micro capillary tubes from the corners of the eyes of the mice. The samples were collected 10 minutes before injection and 30, 120, 240 minutes, 7, 15 and 24 hours on injection. The anthrone method was used to determine the carbohydrate content of the samples (Burt J R; Anal Biochem, 9 (1964) p 293-302).

[2] = Half-life of circulating catalase activity in burnt rats (Clark electrode); type: in vivo, rats (Sprague Dawley); settings: i.v., 20,000 IU, hind paws burnt 5 minutes after injection, catalase activity in blood
Experimental: (§1) Test animals were white rats (Sprague Dawley) of a body weight of 300-350 g. Two groups of rats (6 individuals each) were separately injected intravenously with 0.5 ml 0.9% (w/v) NaCl containing 20,000 international units (IU) native catalase respectively an amount of catalase-2-dipyridyl disulfide derivative (synthesized as above) corresponding to 20,000 (IU) native catalase. 5 minutes after injection hind paws of all the rats were burnt by dipping into circulating water of +55° C. for 20 seconds. 0.4 ml blood was collected from the left arteriae carotis at the time intervals 2, 15, 30, 60, 120 and 180 minutes. The catalase activity in each blood sample was determined as the amount of oxygen formed per time unit. Measurements were carried out with a Clark electrode by standard procedures.

[3] = test system: white rats (Sprague Dawley), burnt hind paws; test: Oedema of the burn, measured as the volume of the paw; type: in vivo; settings: i.v., amount corresponding to 20,000 IU, in 2 hours
Experimental: as §1
The oedema of the burn was measured as the volume of the paw. This volume was measured as corresponding deplacement at even time cuts during 3 hours.

[4] = Determination of half-life for circulation in rabbit (superoxide dismutase activity of blood samples); type: in vivo; settings: i.v., 1 ml of 10 mg/ml
Experimental: Test animals were white rabbits having a body weight of 2-5 kg. 1 ml native superoxide dismutase (yeast superoxide dismutase, Carlsberg Laboratories, Copenhagen, Denmark) (10 mg/ml) or 1 ml superoxide dismutase-2-pyridyl disulfide derivative (10 mg/ml) was injected intravenously into the rabbits. Both of the solutions were prepared from 0.9% (w/v) NaCl. Blood samples were collected from the ear lobes of the rabbits at the time intervals 5, 10, 20, 30, 60, 90, 120, 150, 180 and 210 minutes. The superoxide dismutase activity of the samples was determined according to Crapo J D, McCord J M and Fridovich I; Methods of Enzymology 53 (1978) p 382-393.

insulin-2-pyridyl disulfide derivative: insulin reacted with N-succinimidyl-3-(2-pyridyldithio)-propionate (SPDP)
time until blood sugar level returned to normal values ([1]; 50 ug derivative (group C)): > 24 h
blood sugar level reduced to % of the normal value ([1]; 50 ug derivative (group C)): 40 % of the normal value

native insulin: native insulin, underivatized base compound used as comparison
time until blood sugar level reached the normal value (value before injection) ([1]; 5 ug native insulin (group B)): 7 h
blood sugar level reduced to % of the normal value ([1]; 5 ug native insulin (group B)): 40 % of the normal value

B1: native catalase: catalase of bovine liver (Sigma C-100), further purified by gel filtration (protein, UniProt P00432 2-527, looked up)
Catalase: ADNRDPASDQMKHWKEQRAAQKPDVLTTGGGNPVGDKLNSLTVGPRGPLLVQDVVFTDEMAHFDRERIPERVVHAKGAGAFGYFEVTHDITRYSKAKVFEHIGKRTPIAVRFSTVAGESGSADTVRDPRGFAVKFYTEDGNWDLVGNNTPIFFIRDALLFPSFIHSQKRNPQTHLKDPDMVWDFWSLRPESLHQVSFLFSDRGIPDGHRHMNGYGSHTFKLVNANGEAVYCKFHYKTDQGIKNLSVEDAARLAHEDPDYGLRDLFNAIATGNYPSWTLYIQVMTFSEAEIFPFNPFDLTKVWPHGDYPLIPVGKLVLNRNPVNYFAEVEQLAFDPSNMPPGIEPSPDKMLQGRLFAYPDTHRHRLGPNYLQIPVNCPYRARVANYQRDGPMCMMDNQGGAPNYYPNSFSAPEHQPSALEHRTHFSGDVQRFNSANDDNVTQVRTFYLKVLNEEQRKRLCENIAGHLKDAQLFIQKKAVKNFSDVHPEYGSRIQALLDKYNEEKPKNAVHTYVQHGSHLSAREKANL
half-life for circulating catalase [2]: 9 min

B2: catalase-2-pyridyl disulfide: purified catalase of bovine liver reacted with SPDP (protein, UniProt P00432 2-527, looked up)
Catalase: B1 Catalase
modifications: SPDP 2-pyridyl disulfide derivative
notes: purified catalase of bovine liver reacted with SPDP
half-life for circulating catalase [2]: 34 min
swelling of the burnt paws compared to native catalase [3]: significantly decreased swelling

B3: native superoxide dismutase: yeast superoxide dismutase, Carlsberg Laboratories, Copenhagen, Denmark (protein, UniProt P00445 2-154, looked up)
Superoxide dismutase [Cu-Zn]: VQAVAVLKGDAGVSGVVKFEQASESEPTTVSYEIAGNSPNAERGFHIHEFGDATNGCVSAGPHFNPFKKTHGAPTDEVRHVGDMGNVKTDENGVAKGSFKDSLIKLIGPTSVVGRSVVIHAGQDDLGKGDTEESLKTGNAGPRPACGVIGLTN
half-life for circulation [4]: about 10 minutes

B4: superoxide dismutase-2-pyridyl disulfide derivative: superoxide dismutase from yeast reacted with SPDP (protein, UniProt P00445 2-154, looked up)
Superoxide dismutase [Cu-Zn]: B3 Superoxide dismutase [Cu-Zn]
modifications: SPDP 2-pyridyl disulfide derivative
notes: superoxide dismutase from yeast reacted with SPDP
half-life for circulation [4]: 60 min

Source: patent US4711951A, “Therapeutically active compound and pharmaceutical composition containing the same” (priority 1981, dated 1987)
